Reference: patent publication US12630618 (GEORGIA TECH RESEARCH, dated 2026)

Molecular target: T1, human myocilin OLF (hMyoc-OLF), cleaved from its fusion tag (human, UniProt Q99972 244-503, limits assumed)
T1 construct: In Western blots the protein is denatured; also called hOLF; cleaved human myocilin OLF
T1 sequence: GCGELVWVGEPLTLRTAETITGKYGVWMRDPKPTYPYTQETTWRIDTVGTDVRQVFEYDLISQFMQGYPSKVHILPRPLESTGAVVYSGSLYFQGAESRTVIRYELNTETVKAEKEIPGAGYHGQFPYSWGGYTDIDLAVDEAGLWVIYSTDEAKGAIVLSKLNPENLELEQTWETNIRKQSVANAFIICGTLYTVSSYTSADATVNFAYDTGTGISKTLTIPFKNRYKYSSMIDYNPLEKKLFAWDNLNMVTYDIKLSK
Test: Western blot, denatured hMyoc-OLF, IgG

binding result: binds
B1: Monoclonal Antibody OLF2 (antibody, V domains shown)
VH: DVKLVESGGGLVKPGGSLKLSCAASGFTFSSYAMSWVRQTPDKRLEWVATISSGGSYTYYPDSVKGRFTISRDNAKNTLYLQMSSLKSEDTAMYYCARLGGGIFAYWGQGTLVTVSA
VL: DVLMTQTPLSLPVSLGDQASISCRSSQSIVHSNGNTYLEWYLQKPGQSPKLLIYKVSNRFSGVPDRFSGSGSGTDFTLKISRVEAEDLGVYYCFQGSHVPLTFGAGTKLEIKR
notes: also called anti-OLF2
